tested on: Escherichia coli TOP10; test: shrunken log2 fold change of peptide-encoding DNA abundance (4.5 h post-induction vs induction); higher = less antimicrobial activity (less host growth inhibition); details: time post-induction: 4.5 h; library: site-saturation at positions 5, 18, 19, 20
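Also: peptides expressed intracellularly from a pBAD plasmid library in pooled LB shake-flask culture, induced with 0.3% L-arabinose, DNA abundance read by NGS, three biological replicates, DESeq2 with apeglm shrinkage.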

Sequence	shrunken log2 fold change
RRIRIRPPRLPRPRPRPKNHPRP	-0.622
RRIRERPPRLPRPRPRPQITPRP	-0.778
RRIRIRPPRLPRPRPRPQGDPRP	0.0169
RRIRNRPPRLPRPRPRPMVFPRP	-0.000155
RRIRMRPPRLPRPRPRPVAVPRP	0.55
RRIRKRPPRLPRPRPRPVAQPRP	0.541
RRIRRRPPRLPRPRPRPALEPRP	0.264
RRIRRRPPRLPRPRPRPEKQPRP	0.147
RRIRLRPPRLPRPRPRPTSCPRP	0.0575
RRIRERPPRLPRPRPRPRTFPRP	-0.0471
RRIRCRPPRLPRPRPRPDFSPRP	-0.377
RRIRDRPPRLPRPRPRPLNVPRP	-0.029
RRIRWRPPRLPRPRPRPVLHPRP	-0.0358
RRIRDRPPRLPRPRPRPPVKPRP	0.421
RRIRKRPPRLPRPRPRPLFEPRP	0.513
RRIRRRPPRLPRPRPRPIDEPRP	-0.106
RRIRGRPPRLPRPRPRPIFLPRP	0.0935
RRIRSRPPRLPRPRPRPHHIPRP	-1.12
RRIRQRPPRLPRPRPRPIEPPRP	-0.0381
RRIRTRPPRLPRPRPRPQIRPRP	-0.312
RRIRCRPPRLPRPRPRPPRQPRP	0.589
RRIRLRPPRLPRPRPRPEAFPRP	0.0443
RRIRARPPRLPRPRPRPYQIPRP	-0.385
RRIRWRPPRLPRPRPRPKCTPRP	1.21
RRIRRRPPRLPRPRPRPICNPRP	-0.12

Sequence	shrunken log2 fold change
RRIRMRPPRLPRPRPRPECTPRP	2.91
RRIRTRPPRLPRPRPRPKFEPRP	0.0721
RRIRKRPPRLPRPRPRPLVFPRP	-0.0076
RRIRIRPPRLPRPRPRPNRNPRP	-1.1
RRIRFRPPRLPRPRPRPLTPPRP	0.0478
RRIRNRPPRLPRPRPRPFLDPRP	-0.358
RRIRWRPPRLPRPRPRPHSKPRP	1.84
RRIRNRPPRLPRPRPRPRAGPRP	0.25
RRIRERPPRLPRPRPRPYETPRP	0.0614
RRIRKRPPRLPRPRPRPHCIPRP	-0.165
RRIRSRPPRLPRPRPRPAEPPRP	-0.16
RRIRWRPPRLPRPRPRPENVPRP	0.0417
RRIRLRPPRLPRPRPRPKAAPRP	0.679
RRIRHRPPRLPRPRPRPSVYPRP	-0.47
RRIRFRPPRLPRPRPRPCENPRP	0.015
RRIRHRPPRLPRPRPRPRTEPRP	0.218
RRIRMRPPRLPRPRPRPAIAPRP	1.25
RRIRARPPRLPRPRPRPLETPRP	0.9
RRIRMRPPRLPRPRPRPEQWPRP	0.184
RRIRNRPPRLPRPRPRPVDLPRP	-0.21
RRIRMRPPRLPRPRPRPKAVPRP	0.0216
RRIRHRPPRLPRPRPRPVHCPRP	-0.159
RRIRWRPPRLPRPRPRPGLIPRP	0.336
RRIRGRPPRLPRPRPRPRIYPRP	1.15
RRIRERPPRLPRPRPRPYYCPRP	-0.913

Sequence	shrunken log2 fold change
RRIRVRPPRLPRPRPRPGWCPRP	0.146
RRIRQRPPRLPRPRPRPYETPRP	-0.427
RRIRMRPPRLPRPRPRPFESPRP	-0.00973
RRIRSRPPRLPRPRPRPPSPPRP	0.376
RRIRSRPPRLPRPRPRPKQMPRP	-0.0354
RRIRSRPPRLPRPRPRPRLFPRP	0.376
RRIRDRPPRLPRPRPRPSVKPRP	-0.256
RRIRYRPPRLPRPRPRPNMYPRP	-0.411
RRIRTRPPRLPRPRPRPSKQPRP	-0.11
RRIRIRPPRLPRPRPRPQLYPRP	-0.303
RRIRPRPPRLPRPRPRPFKRPRP	-0.00475
RRIRQRPPRLPRPRPRPDNPPRP	-0.0388
RRIRYRPPRLPRPRPRPSTLPRP	-0.853
RRIRQRPPRLPRPRPRPTGIPRP	-0.177
RRIRPRPPRLPRPRPRPIHCPRP	-0.125
RRIRNRPPRLPRPRPRPRQTPRP	0.112
RRIRVRPPRLPRPRPRPSGFPRP	-0.131
RRIRNRPPRLPRPRPRPIQAPRP	-0.0922
RRIRRRPPRLPRPRPRPDIAPRP	-0.0619
RRIRERPPRLPRPRPRPGIDPRP	-0.14
RRIRDRPPRLPRPRPRPGLMPRP	-0.152
RRIRARPPRLPRPRPRPRPVPRP	0.771
RRIRFRPPRLPRPRPRPMHHPRP	-0.449
RRIRTRPPRLPRPRPRPMRKPRP	0.375
RRIRSRPPRLPRPRPRPQWYPRP	-0.73

Sequence	shrunken log2 fold change
RRIRCRPPRLPRPRPRPQHAPRP	-0.0229
RRIRWRPPRLPRPRPRPQGEPRP	0.29
RRIRERPPRLPRPRPRPNQQPRP	-0.112
RRIRHRPPRLPRPRPRPSWKPRP	-0.0518
RRIRMRPPRLPRPRPRPHVQPRP	-0.0996
RRIRIRPPRLPRPRPRPYMNPRP	-0.712
RRIRIRPPRLPRPRPRPVMKPRP	0.012
RRIRIRPPRLPRPRPRPQVDPRP	0.0508
RRIRARPPRLPRPRPRPQFAPRP	0.402
RRIRMRPPRLPRPRPRPSNVPRP	-0.259
RRIRHRPPRLPRPRPRPGHKPRP	0.0956
RRIRNRPPRLPRPRPRPVMWPRP	0.351
RRIRKRPPRLPRPRPRPRELPRP	0.753
RRIRVRPPRLPRPRPRPFDKPRP	-0.0577
RRIRWRPPRLPRPRPRPVATPRP	0.991
RRIRVRPPRLPRPRPRPQCEPRP	-0.0122
RRIRSRPPRLPRPRPRPYHVPRP	-1.09
RRIRQRPPRLPRPRPRPQPNPRP	0.26
RRIRMRPPRLPRPRPRPSAQPRP	0.623
RRIRVRPPRLPRPRPRPKGKPRP	0.102
RRIRERPPRLPRPRPRPMKRPRP	-0.312
RRIRIRPPRLPRPRPRPTSYPRP	-0.261
RRIRWRPPRLPRPRPRPYYAPRP	-0.195
RRIRSRPPRLPRPRPRPYEGPRP	-0.213
RRIRYRPPRLPRPRPRPFQSPRP	-0.0418

Sequence	shrunken log2 fold change
RRIRWRPPRLPRPRPRPHGWPRP	0.213
RRIRPRPPRLPRPRPRPYIVPRP	-0.15
RRIRHRPPRLPRPRPRPDFRPRP	-0.0827
RRIRPRPPRLPRPRPRPPWTPRP	0.267
RRIRERPPRLPRPRPRPNFYPRP	-0.261
RRIRQRPPRLPRPRPRPISMPRP	0.0161
RRIRKRPPRLPRPRPRPRCLPRP	0.226
RRIRLRPPRLPRPRPRPTAHPRP	0.0391
RRIRTRPPRLPRPRPRPGYPPRP	-0.197
RRIRPRPPRLPRPRPRPGEDPRP	0.461
RRIRDRPPRLPRPRPRPSDPPRP	-0.0499
RRIRLRPPRLPRPRPRPTWVPRP	0.0425
RRIRKRPPRLPRPRPRPVLPPRP	0.338
RRIRIRPPRLPRPRPRPSNDPRP	-0.779
RRIRTRPPRLPRPRPRPVADPRP	0.0403
RRIRIRPPRLPRPRPRPWTSPRP	-0.171
RRIRRRPPRLPRPRPRPNEQPRP	0.324
RRIRCRPPRLPRPRPRPCDPPRP	-0.0532
RRIRLRPPRLPRPRPRPWQIPRP	0.019
RRIRNRPPRLPRPRPRPTCEPRP	-0.0176
RRIRWRPPRLPRPRPRPYHAPRP	-0.295
RRIRWRPPRLPRPRPRPWLLPRP	-0.0799
RRIRDRPPRLPRPRPRPDYGPRP	-0.181
RRIRHRPPRLPRPRPRPFNAPRP	-0.495
RRIRCRPPRLPRPRPRPIVYPRP	-0.788

Sequence	shrunken log2 fold change
RRIRSRPPRLPRPRPRPKTMPRP	0.0109
RRIRNRPPRLPRPRPRPFAYPRP	0.0803
RRIRDRPPRLPRPRPRPHYPPRP	-0.265
RRIRYRPPRLPRPRPRPMLIPRP	-0.767
RRIRERPPRLPRPRPRPDLYPRP	-0.0156
RRIRVRPPRLPRPRPRPGYMPRP	-0.37
RRIRNRPPRLPRPRPRPQHKPRP	-0.155
RRIRKRPPRLPRPRPRPFHEPRP	-0.154
RRIRLRPPRLPRPRPRPCPHPRP	-0.0552
RRIRSRPPRLPRPRPRPQDTPRP	-0.265
RRIRHRPPRLPRPRPRPMCVPRP	-0.192
RRIRSRPPRLPRPRPRPVKYPRP	-0.177
RRIRKRPPRLPRPRPRPLPGPRP	0.529
RRIRTRPPRLPRPRPRPEPGPRP	0.0826
RRIRVRPPRLPRPRPRPPWYPRP	0.0253
RRIRDRPPRLPRPRPRPKCDPRP	0.0437
RRIRKRPPRLPRPRPRPQIHPRP	0.0287
RRIRHRPPRLPRPRPRPQCTPRP	-0.124
RRIRPRPPRLPRPRPRPLRWPRP	0.588
RRIRHRPPRLPRPRPRPKSKPRP	-0.598
RRIRFRPPRLPRPRPRPQEMPRP	0.126
RRIRFRPPRLPRPRPRPMAEPRP	0.0579
RRIRNRPPRLPRPRPRPDFLPRP	-0.342
RRIRFRPPRLPRPRPRPWKAPRP	0.0062
RRIRTRPPRLPRPRPRPHMWPRP	-0.302

From the supplement of paper PMC9112550, “Optimization of the antimicrobial peptide Bac7 by deep mutational scanning” (BMC Biology, 2022)
